Key:
[1] = target: FGF-2 (Homo sapiens, UniProt P09038); test: Study of thermal degradation (stability) of FGF-2 at various temperatures with or without heparin, ELISA; format: physicochemical; details: without heparin
Description: A 5 ng/ml solution of FGF-2 in a 10 mM PBS buffer with 0.1% BSA and 0.1% of methylparaben is prepared.
This solution is placed at various temperatures: 4° C., 20° C., 37° C., 50° C., and 80° C. either in the presence of heparin or not at 500 μg/ml.
Dosages of FGF-2 with a commercial ELISA kit (R&D system, France) are performed at different times (T=0, 3 hrs, 24 hrs and 48 hrs) so as to establish degradation kinetics for each temperature of investigation.
The results are expressed as a percentage of FGF-2 relative to time T=0. The experiments are conducted in triplicates (n=3). The obtained results are illustrated in FIGS. 1 and 2.

[2] = 37° C.; neutral pH; cited from earlier work
[3] = target: T1, cathepsin G (Homo sapiens, UniProt P08311); test: Degradation kinetics of FGF-2 by cathepsin G; format: biochemical; details: for FGF-2 concentration in the presence of cathepsin G / FGF-2 concentration Temperature control: 37° C.; for FGF-2 concentration in the presence of cathepsin G: cathepsin G 0.02 U per well; for FGF-2 concentration Temperature control: enzyme-free; for Degradation % in the presence of cathepsin G: relative to temperature control
T1 sequence (P08311 21-244): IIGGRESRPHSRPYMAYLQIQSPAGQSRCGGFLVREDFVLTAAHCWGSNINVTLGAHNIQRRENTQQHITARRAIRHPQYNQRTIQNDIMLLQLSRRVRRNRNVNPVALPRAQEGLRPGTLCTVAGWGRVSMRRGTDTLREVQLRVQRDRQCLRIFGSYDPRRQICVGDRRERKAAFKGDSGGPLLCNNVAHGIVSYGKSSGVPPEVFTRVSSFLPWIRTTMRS
Description: For this reason, a study of the degradation of FGF-2 by cathepsin G was conducted. Degradation kinetics was carried out in a 100 mM Hepes buffer, pH7 containing 0.1% BSA. Cathepsin G was added into the wells of the plate at a concentration of 0.02 U per well to a 2 ng/well FGF-2 solution. The plate was incubated at 37° C. and sampling was performed at 15, 30, 60, 90 and 120 minutes in order to dose the remaining FGF-2.
The control (100%) is made by extemporaneous dosage of FGF-2. At the same time, an enzyme-free control solution is placed at 37° C. in order to study thermal degradation at the different times, so as to get rid of this degradation due to temperature and to quantify the portion only due to enzymatic degradation.

[4] = system: normal human dermal fibroblasts; test: Fibroblast proliferation by FGF-2 protected by heparin or extract 5c (PNPP); format: cell-based; details: for Proliferation (expressed as percent relative to the non-treated well): 48 hrs, heparin 0.01% during 24 hrs at 37° C.
Description: A solution of FGF-2 is prepared extemporaneously (=non-degraded FGF-2); a solution of FGF-2 is placed for 24 hrse at 37° C. in the absence (=degraded FGF-2) and in the presence of heparin (=FGF-2+heparin at 37° C.) at 0.01%.
Each FGF-2 solution is diluted so as to be applied on the cells, the final FGF-2 concentrations being the following: 0.1, 0.25, 0.5, 0.75 and 1 ng/ml.
Normal human dermal fibroblasts were sown at low density in 6-well plates. They were then grown in a medium in the absence (control) or in the presence of FGF-2 at various concentrations.
After 48 hrs, the activity of intracellular acid phosphatases (PNPP) is dosed, so as to be able to evaluate the effect of FGF-2 solutions, either treated or not, on cell proliferation.
The results are expressed as a proliferation percentage relative to the control well i.e. to the non-treated well.
The same experiment was conducted by replacing heparin with extract 5c. The FGF-2 solution put into the presence of 0.5% of extract 5c is placed for 24 hrs at 37° C. The solution is then diluted so as to apply 0.5 ng/ml of FGF-2 in the wells containing the fibroblasts.
The 5c extract concentration finally applied on the cells is 0.0025%. It was checked beforehand that this 5c extract concentration was not capable of inducing stimulation of the proliferation of fibroblasts. This means that the observed stimulation of proliferation is actually due to the protection of FGF-2 by extract 5c (see Table 8).

Sequence of FGF-2 (P09038 143-288): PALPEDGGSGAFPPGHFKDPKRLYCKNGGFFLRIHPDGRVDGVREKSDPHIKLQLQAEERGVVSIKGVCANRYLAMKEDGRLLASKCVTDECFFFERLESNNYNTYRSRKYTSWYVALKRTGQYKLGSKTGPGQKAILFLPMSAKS

Substance: FGF-2: Fibroblast Growth Factor; non-degraded = solution of FGF-2 prepared extemporaneously
- FGF-2 degraded (percentage relative to T=0) ([1]; 4° C., 48 hrs): 20%
- FGF-2 degradation (percentage relative to T=0) ([1]; 37° C., 3 hrs): 65%
- FGF-2 degraded (percentage relative to T=0) ([1]; 37° C., 24 hrs): 80%
- FGF-2 degradation (percentage relative to T=0) ([1]; 50° C., 3 hrs): 80%
- FGF-2 degradation (in words) ([1]; 80° C., 3 hrs): total degradation
- half-life time of FGF-2 in vitro [2]: about 24 hours
- FGF-2 concentration in the presence of cathepsin G ([3]; 0 minutes): 339.05 ± 7.43 pg/mL
- FGF-2 concentration Temperature control ([3]; 0 minutes): 391.8 ± 3.64 pg/mL
- Degradation % in the presence of cathepsin G ([3]; 0 minutes): 13.29%
- FGF-2 concentration in the presence of cathepsin G ([3]; 15 minutes): 295.61 ± 8.49 pg/mL
- FGF-2 concentration Temperature control ([3]; 15 minutes): 324.99 ± 1.7 pg/mL
- Degradation % in the presence of cathepsin G ([3]; 15 minutes): 8.95%
- FGF-2 concentration in the presence of cathepsin G ([3]; 30 minutes): 248.04 ± 1.97 pg/mL
- FGF-2 concentration Temperature control ([3]; 30 minutes): 291.83 ± 2.4 pg/mL
- Degradation % in the presence of cathepsin G ([3]; 30 minutes): 14.77%
- FGF-2 concentration in the presence of cathepsin G ([3]; 60 minutes): 203.67 ± 1.13 pg/mL
- FGF-2 concentration Temperature control ([3]; 60 minutes): 280.64 ± 3.23 pg/mL
- Degradation % in the presence of cathepsin G ([3]; 60 minutes): 27.5%
- FGF-2 concentration in the presence of cathepsin G ([3]; 90 minutes): 141.94 ± 5.14 pg/mL
- FGF-2 concentration Temperature control ([3]; 90 minutes): 259.81 ± 4.9 pg/mL
- Degradation % in the presence of cathepsin G ([3]; 90 minutes): 45.55%
- FGF-2 concentration in the presence of cathepsin G ([3]; 120 minutes): 131.36 ± 2.49 pg/mL
- FGF-2 concentration Temperature control ([3]; 120 minutes): 241.67 ± 1.97 pg/mL
- Degradation % in the presence of cathepsin G ([3]; 120 minutes): 45.6%
- Proliferation (as a percentage) of fibroblasts relative to the non-treated control ([4]; FGF-2 0.5 ng/ml, 0.5% 5c extract during 24 hrs at 37° C. (0.0025% on the cells)): 148.5% ± 0.007
- Proliferation (expressed as percent relative to the non-treated well) ([4]; FGF-2 concentration 0.1 ng/ml): 116.7 ± 0.012%
- Proliferation (expressed as percent relative to the non-treated well) ([4]; FGF-2 concentration 0.25 ng/ml): 138.7 ± 0.005%
- Proliferation (expressed as percent relative to the non-treated well) ([4]; FGF-2 concentration 0.5 ng/ml): 148.5 ± 0.007%
- Proliferation (expressed as percent relative to the non-treated well) ([4]; FGF-2 concentration 0.75 ng/ml): 163.2 ± 0.005%
- Proliferation (expressed as percent relative to the non-treated well) ([4]; FGF-2 concentration 1 ng/ml): 160 ± 0.003%

Source: patent US9925134B2, “Use of substances to protect FGF-2 or FGF-beta growth factor” (BASF Beauty Care Solutions France SAS, priority 2007, dated 2018)
